Results published in the nanobody polyreactivity screen of Harvey et al. (2022).

Assay: yeast display, Sf9 membrane polyspecificity reagent, FACS + sequencing; frameworks hold sequencing errors
Procedure, shortened: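 A synthetic nanobody library was expressed on Saccharomyces cerevisiae BJ5465 by galactose induction for 36–48 hours. The library was stained for 1 hour at 4 °C with 10% biotinylated, detergent-solubilized Sf9 membrane reagent and enriched with streptavidin microbeads before FACS. Low and high (top ~1%) gates were set on anti-HA fluorescence for expression and streptavidin fluorescence for reagent binding, and each polyreactivity label reflects the gate of origin.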

Row | Sequence | polyreactivity (PSR sort gate)
1 | QVQLVESGGGLVQAGGSLRLSCAASGIIFGDYAMGWYRQAPGKERELVAGISITGDSTYYADSVKGRFTISRDNAKNTVYLQMNSLKPEDTAVSYCAAGWALIFDYWGQGTQVTVSS | low polyreactivity
2 | QVQLVESCGGLVQAGGSLLLSCAASGGTFCDYAMVWYRQAPGKEREFVASITRSVSDTYYADSVKGRFTISRDNAKNTVYLQINSLKPEDTAVYYCKADRWYPWRSIMDYWGQGTQVSVSS | low polyreactivity
3 | QVQLVESGGGLVQAGGSLRLSCAASGYTIGIYAMGWYRQAPGKERELVAAISFSDGTTYYADSVKGRFTISRDNAKNTVYLQMNSLKPEDTAVYYCAAAAGGTVVGEGDYWGQGTQVTVSS | low polyreactivity
4 | QVQLVESGGGLVQAGGSLRLTCAASGSIYVGNAMGWNRHAPGKEREFVAAISRSGGRTYYADSVKGRFTISRDNEKNTVYLQMNSLKPEDTAVYYCNAYGWEQRQMDSWGQGTQVTVSS | high polyreactivity
5 | QVQQVESGGGLVQAGGSLRLSCAATGIIFNDYHMGWYRQAPGKERELVAAINYSGGSTYYADSVKGRFTISRDNAKNTVYLQMNSLKPEDTAVYYCAADNAVWEYDYWGQGTQVTVSS | low polyreactivity
6 | QVQLVESGGGLVQAGGSLRLSCAASGRTFASYTMGWYRQAPGKERELVAAITRGGSTNYADSVKGRFTISRDNAKNTVYLQMNSLKPEDTAVYYCAARFSRSFGYNYWGQGTQVTVSS | high polyreactivity
7 | QVQLVESGGGIVQAGGSLRLSCAASGRTFAYYAMGWYRQAPGKERELVAAIDSSGGSTYYADSVKGRFTISRDNAKNTVYLQMYSLKPEDTAVYYCAASYPYDRYDQGGYGYWGQGTQVTVSS | low polyreactivity
8 | QVHLVESGGGLVEAVGSLRLSCAASGRIFARYAMGCYRQAPGKERQLVATITRVGSTNYADSVKRPFTISRDNAKTTVYLQMNSLKPEDTEGFYCNADIRRNGGYAHEYWVQGTQVTVSS | low polyreactivity
9 | QVQLVESGGGLVQAGGSLRLSCAASGNIFYVYLMGWYRQAPGKERELVASITSGASTYYADSVKGRFTISRDNAKNTVYLQMNSLKPEDTAVYYCAAEALGVAGDYSTLYIYDYWGQGTQVTVSS | low polyreactivity
10 | QVQLVESGGGLVQAGGSLRLSCAASGRTFRVYAMGWYRQAPGKERELVAAINGRGGSTYYADSVKGRFTISRDNAKNTVYFQLNSLKPEDTAVYYCNALARTSWRMDYWGQGTQVTVSS | high polyreactivity
11 | QVQLVESGVGLVQAGGSLRVSCAASGSICNYYAMVWYRQAPGKERELVATISSGGNTKYADSVKRRFTISRDNAKNTVSLQMNSQKPEDTAVYYCAARWQHSGYRDRYWYDYWGQGTQVTVSS | low polyreactivity
12 | QVQIVESGGGLVQAGGSLRLSCAASGSIFLRNAMGWYRQAPGKERELVASITWNGASTSYADSVKGRFTISRDNAKNTVYLQMNSLKPEDTAVYYCAAVTVQDSNLNYGYWGQGTQVTVSS | low polyreactivity
13 | QVHLVVSGGGLVQAGGSLRLSCAASGRLLYKYAMGWNRQAPGKERELVAAISGSGGRTYYADSVKGRFTISRDNAKNTVYLQMNSLKPEDTAVYYCAAVHPFRHVLYDYWGQGTQVTVSS | low polyreactivity
14 | QVQLVESGGGLVQAGGSLRLSCASSGRTISSYAMGWYRQPPGKERELVAGISWRGGRTYYADSVKGRFTISRDNAKITVYLQMNSLKPEDTAVSYCAADRVRGGYRTYYWVVHLDYWGQGTQVTVSS | high polyreactivity
15 | QVQLVESGGGLVQAGGSLRLSCAASGFTFQPYAMGWYRQAPGKERELVAAINWSSGRTYYADSVKGRFTISRDNAKNTVYLEMNCLKPEDTAVYYCNTRSTLGYYWGQGTQVTVSS | high polyreactivity
16 | QVQLVESGGGLVQAGGSLRLSCAASGSTFKRYAMGWYRQAPGKERELVAAITSGSSTYYADSVKGRFTISRDNAKNTVYLQMNSLKPEDTAVYYCAARRAGAKYYLYGYDYWGQGTQVTVSS | low polyreactivity
17 | QVQLVESGGGLVQAGGSLRLSCAASGRIFTGYAMGWYRQAPGKEREVVAAISRGGSTNYADSVKGRFTISRDNAKNTVYLQMNSLKPEDTAVYYCAAGVHWDRGDYWGQGTQVNVSS | low polyreactivity
18 | QVQLVESGGGLVQAGGSLRLICAASGNIFHRYAMGWYRQAPGKERELVAAINGGGGSTYYADSVKGRFTISRDNAKNTVYLQMNSLKPEDTAVYSCAAVVQNGVHIYDYWGQGTQVTVSS | high polyreactivity
19 | QVQLVESGGGLVQAGGSLRLSCAASGSIFTSYAMGWYRHAPGKERELVAAITSTGGSTYYADSVKGRFTISRDNAKNTVYLQMNSLKPEDTAVYYCNADGGTPYDYWGQGTQVTVSS | low polyreactivity
20 | QVQLVESGGGLVQAGGSLRLSCAASGSIFLINAMGWYRQAPGKERELVAAISWSGGSTSYADSVKGRFTISRDNAKNTVYFQMNSLKPEDTAVFYCAAESISYRPGYDYWRQGTQVTVSS | low polyreactivity
21 | QVQHVESVGGLLQAGGSLPLSCASSGSTFTGYAMGRYREAPGIVRELVAAISSSGGRTYYADSVKGRFTISRDNAKNTVYLQMNSLKPEDTAVYYCAVRPRYRPSGYVEYDSWGQSTQVTVSS | high polyreactivity
22 | QVQLVESGGGLVQAGGSLRLICAASGITFSLYVKGRYSQAPGNERELVAAISTSGGSTYYADSVKGRFSLSRDNPKKSVYFQMNSLKPEDTSVYYCAAVYVLSWYVQTYDYWGQGTQVTVSS | low polyreactivity

Row | Sequence | polyreactivity (PSR sort gate)
23 | QVQLVESGGGLVQAGGSLRLSCAASGRIFHQNTMGWYRQAPGKERELVAAISATGGGTNYADSVKGRFTISRDNAKNTVYLQMNSLKPEDTAVYYCAVRPKTSWYSWYYWGQGTQVTVSS | low polyreactivity
24 | QVQLVESGGGLVQAGGSLRLSCAASGSTWNRNPMGWYRQAPGKERELVAAISWRGDSTSYADSVKGRFTISRDNAKNTVYLQMNSLKPEDTAVYYCATAHDYAFYRYWYVPSEYNYWGQGTQVTVSS | low polyreactivity
25 | QVQLVESGGGLVQAGGSLRLSCAASGRTFVVNYMGWYRQAPGKERELVATINVSGGSTSYADSVKGRFTISRDNAKNTVYLQMNSLKPEDTAVYYCNVDTYVEYPHDYWGQGTQVTVSS | low polyreactivity
26 | QVQLVESGGGVVQAGGSLRFSCAASGSIFPGYAMGWYRQAPGKEREMVATITWSGGTTYYADSVKGRFTISRDYAKNTVYFQMNSLKPEDTAVYYCNATFGYPFLDYDDYWGQGTQVNVSS | low polyreactivity
27 | QVQLVESGGGLVQAGCSRRLRCAASGFTFRLYAMGWSRQAPGKERELVAATTSGGSTYYADSVKGRFTISRDNAKNTVYLQMNSLKPEDTAVYYCNKLYRTSVEYDYWGQGTLVTVSS | high polyreactivity
28 | QVQLVESGGGLVQAGGSLRLSCAASGRIFRYYAMGWYRQAPGQERELVAAITWSGGSTYYADSVKGRFTISRDNAKNTVYLQMNSLKPEDTAVYYCNAKSYQPFHGDYWGQGTQVTVSS | low polyreactivity
29 | QVQLVESGGGLVQAGGSLRLSCAASGRIYRYYAMGWYRQPPAKERELVAAIRRGGSTSYADSVKGRFTISRDNAKNTVYLQMNSLKPEDTAVYYCAATQYYRGYDYWGQGTQVTVSS | high polyreactivity
30 | QVQLVESGGGLVQAGGSLRLSCAASGYIFHSYAMGWYRQAPGKERELVAAITSSGGSTYYADSVKGRFTISRDNAKNTVYLQMNSLKPEDTAVYYCAAEYYYVYPYYRSPKFDYWGQGTQVTVSS | high polyreactivity
31 | QVQLVESGGGLVQAGGSLRLSCAASGITFYLYDMGWYRQAPGKERELVASITSDGSTDYADSVKGRFTISRDNAKNTVYLQMNSLKPEDTAVYYCNARVTYAWYRFGRSGDDSWGQGTQVTVSS | low polyreactivity
32 | QVQLVESGGALVHAGGSLRLSCAASGSILKTYAMGWYIQAPGKEREFVAAMSSGGSTYYADSVKGRFTISRDNAKNTVYLQMNSLKPEDTAVYYCAADPWGDFVSFASYYYWGQGTQVTVSS | low polyreactivity
33 | QVQLVESGGGLVQAGGSLRLSCAASGSIFWLYAMGCYRQAPGKERELVAGISQNGGSTTYADSVKGRFTISRDNAKNTVYFQMNSLKPEDTAVYYCAAKRYGPFKYGYWGQGTQVTVSS | high polyreactivity
34 | QVQLLESGGGLVQAGGSLRLSCAASGRTFTYYAMGWYRQAPGKERELVASISTTGRTYYADSVKGRFTISRDNAKNTVYLQMNSLKPDDTAVYYCATRSRYYYDYWGQGTQVTVSS | high polyreactivity
35 | QVQLVESGGGLVQAGGSLRLSCDASGITFLNYAMGWYRQAPGKERELVAAIDTRGGRTNYADSVKGRFTISRDNAKNTVYLQMNSLKPEDTAVYYCAADPFYWYRSVRGEYWGQGTQVTVSS | low polyreactivity
36 | QVQLEESGGGLVQAGGSHRLSCAASGSIIYPYTMGWYRQAPRKERELVAAISGGGRTYYADSVKGRFTISRDNAKNTVYLQMNSLIPEDTAVYYCAARRGYPSGYEYWGQGTQVSVSS | high polyreactivity
37 | QVQLVESGGGLVQAGGSLRLSCAASGSTISFYAMGWYRQAPGKERELVAAISFRGGRTYYADSVKGRFTISRDNAKNTVYLQMYSLKPEDTAVYYCAAVWYYGHARYDYWGQGTQVTVSS | high polyreactivity
38 | QVQLVESGGGLVQAGGSLRLSCAASGSIFYSYAMGWYRQAPGKERELVARINYRGGSTYYADSVKGRFTISRDNAMNTVYLQMNSLKPEDTAVYYCAKRSYWSSNPRDYWGQGTQVTVSS | high polyreactivity
39 | QVQLVESGGGLVQAGGILRLSCAASGSIFYGNDMGWYRQEPGKEREFVAGISWSGGSTYYADSVKGRFTISRDNAKNTVYVQMNSLKPEETAVYYCAAVRWGSYTLSDDYWGQGTQVTVSS | low polyreactivity
40 | QDQLEESGGGLVQAGGSLRLSSADSGRIFYSYAMGWYRQAPGKERELVAAINSGDRTNYADSVKGRFTISRDNAKNTVYLQMNSLKPEDTAVYYCATRWFAFPWDEYNYWGQGTQGTVSS | low polyreactivity
41 | QVQLVESGGGLVQAGGSLRLSCAASGYTFTINAMGWYRQAPGKERELVAAISWNGGRTYYADAVKGRFTISRDNAKNTVYLQMNSLKPEDTAVCYCNADTYAAGDYWGQGTQVTVSS | high polyreactivity
42 | QVQLVESGGGLVQAGGSLRLSCAASGSIFRLYAKGSYRQAPGKERELVARITTGGSTNYADSVKGRFTISRDNANNTVYLQMNSLKPEDTAVYYSWGVPRRYYYWGQGTQVTVSS | high polyreactivity
43 | QVQLVESGRGLVQAGGSLRLSCAASGRTFYSNTMGWSRQAPGKERELVAVISNGGSTYYADSVKGRFTISRDNAKYTVYLQMNSLKPEETAVYYCAARSRDRYRGNYWGQGTQVTVSS | high polyreactivity
